In article PMC9044925:

Each substance was assayed against PTP-CIF3 (Trypanosoma brucei) (assay: co-IP; PTP-tagged protein precipitated from T. brucei lysate with IgG-Sepharose beads, 30 min at 4°C, IP buffer, five washes; 3HA-tagged partner detected by anti-HA immunoblot; complementation lines induced with tetracycline).

percent of the input protein immunoprecipitated [%]	Substance
50	CIF1-3HA (ectopic, full-length CIF1) (natural protein)
24	CIF1-ΔIDR1-3HA (domain or fragment)

Substance	percent of the input protein immunoprecipitated [%]
CIF1-ΔIDR2-3HA (natural protein)	72

What follows are substances tested against CIF1 (endogenous) (Trypanosoma brucei (endogenous in T. brucei cells)) (assay: co-IP; endogenous CIF1 or TbPLK precipitated from T. brucei lysate with anti-CIF1 or anti-TbPLK antibody and protein A-Sepharose beads, 30 min at 4°C, IP buffer; 3HA-tagged CIF3* and mutants detected by anti-HA immunoblot; band intensity by ImageJ, normalised to CIF1 and compared with the input).

Substance	percent of the input protein immunoprecipitated [%]
CIF3*-3HA (full-length recoded, RNAi-resistant CIF3) (natural protein)	21
CIF3*-ΔCC1-3HA (domain or fragment)	16
CIF3*-ΔCC2-3HA (natural protein)	31
CIF3*-ΔCC3-3HA (natural protein)	3
